Experimental data published in patent US20180201672A1 (ACADEMIA SINICA, published 2018).
Values belong to the binder of their own block, whether it stands above or below them.

Biological target: T1, interleukin-17 receptor B (IL-17RB), human, endogenous or ectopic full-length on cells (human, UniProt Q9NRM6 18-502)
T1 construct: In the assays the protein stood on human cancer cell lines or tissue sections; also called native IL-17RB; endogenous IL-17RB
T1 sequence: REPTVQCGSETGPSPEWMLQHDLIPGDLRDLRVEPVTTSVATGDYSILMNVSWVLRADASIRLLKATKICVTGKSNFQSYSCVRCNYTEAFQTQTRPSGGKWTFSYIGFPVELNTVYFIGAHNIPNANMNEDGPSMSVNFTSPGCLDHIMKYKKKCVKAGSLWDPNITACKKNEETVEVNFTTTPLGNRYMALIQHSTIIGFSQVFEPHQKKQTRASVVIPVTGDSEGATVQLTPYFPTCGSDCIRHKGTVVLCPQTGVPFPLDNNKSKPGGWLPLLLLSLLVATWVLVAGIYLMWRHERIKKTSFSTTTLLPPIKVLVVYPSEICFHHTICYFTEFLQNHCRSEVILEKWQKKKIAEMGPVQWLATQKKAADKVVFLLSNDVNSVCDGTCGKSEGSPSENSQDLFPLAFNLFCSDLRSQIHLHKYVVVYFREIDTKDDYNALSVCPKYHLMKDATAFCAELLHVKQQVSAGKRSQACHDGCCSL
Assay: FACS on IL-17RB expressing pancreatic cancer cell lines (CFPAC-1 WT and KO, HPAF-II; MCF10A negative control)
Method: FIG. 9. Specificity and Binding Efficiency of anti-IL17RB chimeric D9 antibody (cD9). A, the specific recognition of mouse and chimeric D9 antibody to IL-17RB was determined by FACS analysis using IL-17RB expression (WT) and IL-17RB knock-out (KO) pancreatic cancer cell line CFPAC-1. The FACS profiling of no antibody (no staining) or secondary antibody only (2nd Ab only) were served as control. B, the recognition efficiency of mouse and chimeric D9 antibody was measured by FACS analysis using IL-17RB expression pancreatic cancer cell lines, CFPAC-1 and HPAF-II. MCF10A with no IL-17RB expression was served as negative control.

binding result: binds
B1: chimeric monoclonal anti-IL-17RB antibody cD9 (antibody, V domains shown)
VH: EVQLQQSGPELVKPGASVKISCKTSGYTFTEYTIHWVKQNHGKSLDWIGGINPNNGGTTYNQEFKGKATLTVDKSSSTAYMEFRSLTSEDSAVYYCARSYYGYVDYWGQGTTLTAA
VL: QIVLTQSPAIMSASPGEKVTMTCSASSSIYYIHWYQQKSGTSPKRWIYDTSKLASGVPARFSGSGSGTSYSLTISSMEAEDAATYYCQQWSSNPFTFGSGTKLEIK
notes: also called chimeric D9 antibody; mAb cD9

binding result: binds
B2: mouse monoclonal anti-IL-17RB antibody D9 (antibody, V domains shown)
VH: B1 VH
VL: B1 VL
notes: Mouse monoclonal antibody from a hybridoma, raised against recombinant IL-17RB extracellular domain (amino acids 18-289) made in HEK293 cells; also called mAb D9; mAbD9
